Data taken from patent publication US7674604.

Assays:
[1] = target: LFA-1 mutant K287C/K294C (αL K287C/K294C with β2) on 293T or K562 transfectants (human) (UniProt P05107); test: flow cytometry on transfectants
[2] = target: LFA-1 mutant L289C/K294C (αL L289C/K294C with β2) on 293T or K562 transfectants (human) (UniProt P05107); test: flow cytometry, K562, normalized to TS2/4
[3] = target: LFA-1 mutant K287C/K294C (αL K287C/K294C with β2) on 293T or K562 transfectants (human) (UniProt P05107); test: flow cytometry, K562, normalized to TS2/4
[4] = target: LFA-1 single cysteine substitution mutant K287C on 293T transfectants (human) (UniProt P05107); test: flow cytometry, 293T, normalized to TS2/4
[5] = target: LFA-1 mutant L289C/K294C (αL L289C/K294C with β2) on 293T or K562 transfectants (human) (UniProt P05107); test: flow cytometry, 293T, normalized to TS2/4
[6] = target: LFA-1 mutant K287C/K294C (αL K287C/K294C with β2) on 293T or K562 transfectants (human) (UniProt P05107); test: flow cytometry, 293T, normalized to TS2/4
[7] = target: LFA-1 single cysteine substitution mutant K294C on 293T transfectants (human) (UniProt P05107); test: flow cytometry, 293T, normalized to TS2/4
[8] = target: LFA-1 single cysteine substitution mutant L289C on 293T transfectants (human) (UniProt P05107); test: flow cytometry, 293T, normalized to TS2/4
[9] = target: isolated K287C/K294C αL I-domain (V130-A338) expressed on K562 cells by the PDGF receptor transmembrane domain (human) (UniProt P20701); test: flow cytometry on K562 transfectants
[10] = target: wild-type LFA-1 (αL/β2 complex) expressed on 293T or K562 transfectants (human) (UniProt P05107); test: inhibition of adhesion of K562 transfectants (+CBRLFA-1/2) to immobilized ICAM-1
[11] = target: LFA-1 mutant K287C/K294C (αL K287C/K294C with β2) on 293T or K562 transfectants (human) (UniProt P05107); test: inhibition of adhesion of K562 transfectants to immobilized ICAM-1
[12] = target: recombinant ICAM-1 Fc chimera immobilized on the BIAcore sensor chip (UniProt P05362); test: BIAcore; fit of dissociation phase, 1:1 model; Table 6 kinetic study; Koff from a 1:1 fit of the dissociation phase
[13] = target: recombinant ICAM-1 Fc chimera immobilized on the BIAcore sensor chip (UniProt P05362); test: BIAcore; Scatchard plot at steady state; Table 6 kinetic study; KD from Scatchard plots at steady state, millimolar affinity
[14] = target: recombinant ICAM-1 Fc chimera immobilized on the BIAcore sensor chip (UniProt P05362); test: BIAcore; Kon calculated by Koff/KD; Table 6 kinetic study; Kon calculated as Koff/KD from steady-state data, very weak binding

Sequence of recombinant ICAM-1 Fc chimera immobilized on the BIAcore sensor chip (P05362 28-480 limits assumed, stated change not applied): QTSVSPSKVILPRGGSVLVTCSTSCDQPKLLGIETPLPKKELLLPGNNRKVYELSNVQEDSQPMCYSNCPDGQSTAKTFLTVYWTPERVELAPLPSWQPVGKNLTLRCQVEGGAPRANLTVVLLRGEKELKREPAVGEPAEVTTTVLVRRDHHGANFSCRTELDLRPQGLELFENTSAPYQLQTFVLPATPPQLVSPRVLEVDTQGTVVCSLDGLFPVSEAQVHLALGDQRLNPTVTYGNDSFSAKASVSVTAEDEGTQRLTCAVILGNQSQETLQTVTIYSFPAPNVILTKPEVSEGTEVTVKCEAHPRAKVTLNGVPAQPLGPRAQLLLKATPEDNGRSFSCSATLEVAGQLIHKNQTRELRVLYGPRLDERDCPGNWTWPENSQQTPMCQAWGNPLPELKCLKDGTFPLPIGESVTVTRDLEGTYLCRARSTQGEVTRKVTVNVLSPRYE
Sequence of isolated K287C/K294C αL I-domain (V130-A338) expressed on K562 cells by the PDGF receptor transmembrane domain (human) (P20701 155-363 K312C/K319C limits assumed): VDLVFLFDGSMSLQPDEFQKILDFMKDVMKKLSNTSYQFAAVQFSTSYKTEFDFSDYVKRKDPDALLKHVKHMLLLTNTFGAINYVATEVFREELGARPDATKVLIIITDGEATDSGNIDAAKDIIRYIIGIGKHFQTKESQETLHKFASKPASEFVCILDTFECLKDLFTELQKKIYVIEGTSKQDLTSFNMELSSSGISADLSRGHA

| % of wild-type binding (% of wild-type) [1] | % wild-type binding (% of wild-type) [2] | % wild-type binding (% of wild-type) [3] | % wild-type binding (% of wild-type) [4] | % wild-type binding (% of wild-type) [5] | % wild-type binding (% of wild-type) [6] | % wild-type binding (% of wild-type) [7] | % wild-type binding (% of wild-type) [8] | % of binding to the wild-type I-domain (% of wild-type I-domain) [9] | % inhibition [10] [%] | % inhibition [11] [%] | koff [12] [s⁻¹] | Kd [13] [µM] | kon [14] [M⁻¹ s⁻¹] | Substance |
| --- | --- | --- | --- | --- | --- | --- | --- | --- | --- | --- | --- | --- | --- | --- |
| 40 to 50 | 118 | 55.5 | 86.1 | 95.9 | 43.6 | 89.4 | 93.3 | 80 | – | – | – | – | – | monoclonal antibody CBRLFA-1/1 |
| – | 111 | 101 | – | 95.1 | 103 | – | – | – | 98.4 | 0.08 | – | – | – | monoclonal antibody YFC51 |
| – | – | – | – | – | – | – | – | – | – | – | 3 | 1350 | 2220 | recombinant soluble wild-type αL I-domain (G128 to Y307), made in E. coli (from UniProt P20701 153-332) (receptor) |
